Experiment: soluble on expression in E. coli; label from the status in PepcDB or PDB records

| Sequence | soluble on expression in E. coli |
| --- | --- |
| MGSDKIHHHHHHVVRKINFMNLIELLKKIKRKILAQMFNLNYRPYTHTTVIFESFGGRQISDSPLAIYKELKKTHPEYRLIWVVNKGLATQAEKNGYDYVIRGSFKWVRTIEKAQVWVENARLPQWVRKPDHIKLIQTWHGTPLKKLGLDIKNVVMPGTNTERYHQNFVREANRWDVLISPNTYSTNIFRQAFGYQNKIVEIGYPRNDKLANPTKEEIKLLKQKLGIPLDKKVIMYAPTYRDNQFFQKGKYSFELPFSLKEFQERFGSNAVLLLRMHYLIANSMDISGFEDFAYDVSSYADISELYLVSDLLITDYSSVFFDYAYLKRPILFYPYDYEIYKDELRGFYLDYQKDLPGKIAYNSVDLYDEIENELKENDISNNQQFEMFYKRFCGLNAGNASKRIVEEIERNL | not soluble |
| MGSDKIHHHHHHMAQRSILVGQIWHEGHSFNPILTREKDFLFLRGEAVLEEARASSTALSGIVKTAEALGYRCVPSISARARPGGAIEQKVFDNIVDEFVQAARMQDFDAICLDLHGATLAEHTLDTEGYLLSRLREVVGNDIMISLALDLHAYLTPQMVEQATIITSFRTTPHADIEETGVRAMTLLDSLSNETRPPRAIYSLIPFLTRGNDETWSGPLAEIGAAADRWRARSDVVDLSIFNVHPFLDVPGYGQVVLAYDNGSGAAIDACRDLSDMLWKARDEFQEQLMSVDKALEIARTSRQLLALGDQGDRVMGAGPGDSPEIARVALEHFPGLKVAVPVYDPQAVRTAREAGENATVRMAVGGAFTHSVAPLERDWTVRKLCRARFTNIGPYMAGTEADFGDAAVLTCDAVTVIVTTMAPNVHDPAFYEAVGVPLASQQAVVARAANHYKLSFADIARTITVDTPGLTAFKPHQFPFTQARPFYPLDIVQWSFAPLECNKVG | not soluble |
| INLPWYLSPIAIPVTQILSAVSPLPRYAPGHKPYFPKPFEDNPLSQSAGRYQWFRNLYTEKPELQVGGPSTRWVWQGLMAAKQCFLLTRQVKVPVLLVQAGNDRIVSNLAQKRFIEKLRKTNPHAALLSIEGAQHEILFETDQYRNQALDAIFRFMDDPTSSSDEKMQ | not soluble |
| MYKPITFSLKYIFKTAGKVEVQGREKLPEGGPYVVACTHTSFMDVLMLATGMYPTEIHYMAKKELFEGKFKNWFFKNVNAFPVDRANPGPSTLKIPSRLLKEGKVVGIFPSGTRSTEDVSLKAGAVTIAMRSNVPLIPAAYIGPSSVKELIKGKRAQLIFGDPIQIDAEEQIDRKTAMKMMTDQLNEKFEGLKEALQSNQK | not soluble |
| MDKLNKITVPASQKLRQLQKMVHDIKNNEGGIMDKIKKLKVKGPPSVPRRDYALDSPADEEEQWSDDFDSDYENPDEHSDSEMYVMPAEETGDDSYEPPPAEQQTRVVHPALPFTRGEYVDNRSSQRHSPPFSKTLPSKPSWPSAKARLASTLPAPNSLQKPQVPPKPKDLLEDEADYVVPVEDNDENYIHPRESSPPPAEKAPMVNRSTKPNSSSKHMSPPGTVAGRNSGVWDSKSSLPAAPSPLPRAGKKPATPLKTTPVPPLPNASNVCEEKPVPAERHRGSSHRQDTVQSPVFPPTQKPVHQKPVPLPRFPEAGSPAADGPFHSFPFNSTFADQEAELLGKPWYAGACDRKSAEEALHRSNKDGSFLIRKSSGHDSKQPYTLVAFFNKRVYNIPVRFIEATKQYALGKKKNGEEYFGSVVEIVNSHQHNPLVLIDSQNNTKDSTRLKYAVKVS | soluble |
| MTTPRWLTQDEQSLWRLFLAMERKVTRGIDEELQSSQGLTTPEFSVLVSLSERPGHEIRLRDLCESLQWDRSRTSHQITRMQRRGLVTKTKCSDDARGVFVELTPEGEKRLREAAPGHVDVVRKLIFDVMTEEEAAVLRGYFQKVIDVQCGASTGNPLDD | not soluble |
| MAHHHHHHMIVVSSPKATNYDEWEKQLKARRIIMNCPDEMVVKAMCAWMKRGLEPDKQVECWNMVEKHMEKVGPIPRHIFDEDDYIDRMSAVDDALLSIKPTDVGEHFTLRGSKLWYSEVPSHKLLKVVREITEKGAEVFLNASISADIGFRIADRLEKEMATKDFLLLILRWRDALVSHALEKLGLRAFMYGELVIAIVEGLKELPPPSPSKPRSSVLKVNYQGYPTRAVGLKELQGGVTRIPMEYRVLYIPKVENFPLVDGFFFVDSPRKTLVGLQMTTASAHHKITSTVNLFNERMAEYFNGWEELSRDLSWEMIYIQHALSKEISKWQRCGPVNTENLSDTEKEIVAFWDGRVHQYQFVLTPDFVSKIREMRIQQSWGKGIGKKVREIIGEQSAFRFGKYIGKYFNDFYVCVCAYGV | not soluble |
| MGKRFSSFQAAQIRIARPTGQLDEIIRFYEEGLCLKRIGEFSQHNGYDGVMFGLPHADYHLEFTQYEGGSTAPVPHPDSLLVFYVPNAVELAAITSKLKHMGYQEVESENPYWSNGGVTIEDPDGWRIVFMNSKGISGK | soluble |
| MGSDKIHHHHHHMFNSERLCIARERRGLTQRALAEAAGLTSKTISNYEKAGIFDAIASDSMERISAVLEYPIEFFLDRDVPSLTPEAVSFRAMTKLSAQKRDSALGAGKLAQELSAWIDGQFKLPKPNVPDSSFDGYSEPERAARTVREAWGIGELSISNIVHLLEANGIRVFSLAENCVEVDAFSFWMDEKPFVLLNTMKTPERSRFDAAHELGHLVLHKHSCNNGRQAEQDADRFASAFLMPERSILASVPRMPRLEQLILLKKNWKVSLAALVRRTFDVGLSTEWHYRQLSIELNRRGYRTGEPQGMPEREKSLILEKVFSALRTQGIKRTEILGQLRFPADEVSALTFNNRFFMEAITGDGPQSYIERKQPPQLSLVK | not soluble |
| MSLKFFPTRTLLCLCIAAPCLPAIAQNDPIELPDIGTVAGSTLTIDQELIYGDAYMRMLRNNQPVINDPVLNEYIDNLGHRLVASANDVKTPFTFFMIRDRNINAFAFFGGYVALHSGLFLHAQSESELASVMAHEIAHVTQRHLARSMEEQARRSPATIAALAGSLLLAIAAPEAGIAAINATMAGSIQGQINYTRSNEKEADRFGIATLAKAGFDANAMPQFFTRLADEYRYASKPPPMLLTHPLPEDRITDSRERARQYPPLKLAPHLDYHLARARIIARYAGIDADAALDWFARSEKKIDATLQPSIQYGKALVYLDLKQFDKAEPLLTQLVKEQPDNHFYLDAISDLYIELKQADKAQSLLEKALKQTPNNSVLTINYANVLLKQDKFTDAIRILQRYTHDNPNDINGWQLLSEANSRLGNSAEDLAARGEIMALQANWNKAIQFYTQASQLVELGSLAQARYDARIDQLMVQRERFLSLQEGGSHHHHHH | soluble |
| LEIPTSTVVKETLTQLSAHRALLTSNETLRLPVPTHKNHQLCIGEIFQGLDILKNQTVRGGTVERLFQNLSLIKKYIDRQKEKCGEERRRTRQFLDYLQEFLGVLSTEWAIEG | soluble |
| MPPKLRNFDKSMEKYTDVVLVVKQERFYVSRAILSEHCTYFQSLFCGDSNYQEHIISDVEPQDFQKFLEVVHGEPAIFEATVQKILPLAQKFGSKTVLQKCERFLITISTVRLSTKWNLAKQYGLDELQAHCKLEFKTAQIVRKNPQPEPKSLAYSDKFIFDHSFEKVDGLAEGDMRRSQPITHLDFTWTIYITRKNQHLRVSLCCGKAHLTSDWTVRADFKMTLTAKGSPDLVSDTKGFFHLDSEKNFYWELGQEVEWDEIRDKCLADGKLEVETRVRIVKIRELPVEEFKPPRIVTVNAVKSYEGVLSDYIRVTPLTQQAKTSAPAETPDLQTPPRQQASAKPQASPAKSAGAPQLPQKVPLFPSGGAPSSPSAPEAPSEPPPPKIYPTLGANAPPAPPVQGKKFILKNVFGNVEAMKCHTAMACQKAVAYDFEWNLIISQKNNRLHVSLCCSKSNVTSEFRILADFELIIAGKNGGRPLKSKTNGCFNIEKTKNSSQELGQDVEWSTIVYDYMVDGRLTVEAHVNITRVTCLDAPKFKKLRNFDATGNSWDVMLIVAGQRFFVLKEILISNSARFKNIISKINFTAAPSTEIKLPDSSADHFQNFLEACYGDPSINDDTVHGILKIAQSYEAAGIVKRCEEYVIKYSKKTLEQKEKLAKHHNLKTLKAHCDYWKSRRKCC | not soluble |
| MKTNEVLENIKARRSVRAYTDRQVSEEDLQAILEAATFAPSGMHLETWHFTAIQNADKLAELNERIKGAFAKSDEPKLQERGHSKAYCCYYHAPTLVIVSNEPTQWWAGMDCACAIENMFLAAHSLGIGSCWINQLGTTCDDPEVREFISSLGVPENHKVYGCVALGYADPKISLREKMVKAGTVTVVR | not soluble |
| MTPPEIDFFPDFIADPHRLFNHLKDSVLWDERMRARKTASFGAPYDYSQITYPAVPMPEALEQLCGPIEQLLGFRPNNCLLNCYPDGHSSMGFHSDANEQLVTGTGVVIVSLGHARAMVFRHKESGATFDYSLASGSLLHMSDELQKHWLHAIPKAPDAGERISLSFRQLKTGLEHHHHHH | soluble |

Source: the DeepSol protein solubility set
